Measured values published in patent US20220307159.

Columns and labels:
[1] = molecular target: eIF3 complex (detected via eIF3b) (Homo sapiens) (UniProt Q14152+P55884+Q99613+O15371+P60228+O00303+O75821+O15372+Q13347+O75822+Q9UBQ5+Q9Y262+Q7L2H7); experiment: pulldown; details: RIP-chip co-IP with anti-eIF3b, 4 C
LIN28A = molecular target: T1, LIN28A (UniProt Q9H9Z2); experiment: pulldown; details: RIP-chip microarray, TALON beads, 4 C
T1 sequence: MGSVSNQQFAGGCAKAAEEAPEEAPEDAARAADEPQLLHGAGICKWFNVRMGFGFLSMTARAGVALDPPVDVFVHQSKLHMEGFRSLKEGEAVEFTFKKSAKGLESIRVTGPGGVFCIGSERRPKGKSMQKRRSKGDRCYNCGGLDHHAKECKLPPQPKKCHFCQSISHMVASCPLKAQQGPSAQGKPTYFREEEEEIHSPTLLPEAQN

HIV_2014_Siegfried_nucs_1_753_2_Multi (HIV-1 gag IRES)
binding signal (top % (rank 568)) [1]: 6.58

HIV_2014_Siegfried_nucs_1_753_9 (HIV-1 gag IRES)
binding signal (top % (rank 17)) [1]: 0.2

hsa-mir-532
binding signal (Cy5 intensity (rank 10)) (LIN28A): 7.39

pre-hsa-mir-940
binding signal (Cy5 intensity (rank 6)) (LIN28A): 7.5
